In the RNAGym collection of RNA variant scans (doi:10.1073/pnas.2313332121):
Variants at the floor of the assay were thinned out.

B1: TPR 5TU (parent)
chain: GGAUCUUCUCGAUCUAACAAAAAAGACAAAUCUGCCACAAAGCUUGAGAGCAUCUUCGGAUGCAGAGGCGGCAGCCUUCGGUGGCGCGAUAGCGCCAACGUUCUCAACUAUGACACGCAAAACGCGUGCUCCGUUGAAUGGAGUUUAUCAUG

Variants of: B1
Experiment: polymerase ribozyme fitness, log enrichment relative to wild type (log ratio); higher = more active; in vitro selection for triplet polymerase activity
Method in brief: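 Fitness compares each genotype's enrichment to that of the wild type on a logarithmic scale, averaging replicates with inverse-variance weights. The logarithm is base 2. Enrichment came from Illumina sequencing of input and output libraries after one triplicate round of in vitro selection, which included frozen incubation at −7 °C, of PCR-built, transcribed mutant libraries of each subunit of a heterodimeric triplet polymerase ribozyme. Only genotypes with ≥10 input reads and ≥1 read per output were kept.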

Row | Variant | polymerase ribozyme fitness (log ratio)
1 | U45G U56A | 0.0147
2 | G46U C85U A91C | ≤ -4.2
3 | A47G G50A C85U C99A G124C U127G | ≤ -4.2
4 | A47C C57A G94A U144G | 1.12
5 | G46A A47G G48A G50C G136A | ≤ -4.2
6 | A47G U53A C57A G84U C99U U134G G141C | ≤ -4.2
7 | A47C C57U G67C C69A A91U C149U | ≤ -4.2
8 | G46U G83U A91U A106U U148C | ≤ -4.2
9 | A47U A121U A147C C149U | -3.04
10 | G46C A66C C85U C93G C118U | ≤ -4.2
11 | A47C C54U U55A U101C | 0.0498
12 | A47U G86U U134A | -3.84
13 | G48A C51U | -1.05
14 | G46A U53A U77A G80A C85A A98U U102C C132G A138G | ≤ -4.2
15 | G48A A52C C85U | -2.93
16 | G46U G88U | ≤ -4.2
17 | A47G A52U G68U C79A C93U C99A G141C A142G G143U | ≤ -4.2
18 | A47G U102C A142C C149U | ≤ -4.2
19 | A47C A89G C118A G133U | ≤ -4.2
20 | A47U A60C C125U | -2.64
21 | A47U C69U C93A A107C A115C | ≤ -4.2
22 | G46A C54G C95U | -2.17
23 | U45G G84U A113U | -4.1
24 | G46C U144C | -1.66

Row | Variant | polymerase ribozyme fitness (log ratio)
25 | A47G G86U G88C U109G | ≤ -4.2
26 | A47U G86A | -1.08
27 | G46A G50A C57U A60G G68A G83A G94U G141C | ≤ -4.2
28 | A47G C54G | -0.785
29 | A47G C87A G126A | ≤ -4.2
30 | A47G C63G G74C A120G | ≤ -4.2
31 | G46U C85G | -1.84
32 | G46A C54A C76U G143A | ≤ -4.2
33 | A47G G92C C114U | -2.53
34 | A47U U101G C116G | -2.38
35 | A47C G62U C99G G143U | ≤ -4.2
36 | G48A C57U G83C U101C | -2.63
37 | A47G A52G G58A A60G G62C U78G G88C | ≤ -4.2
38 | G46C A49C U56A C57U G62A C63A C69U G86C C99U G141C U145G C149U A150U | ≤ -4.2
39 | A47U C54U C93U | -2.08
40 | G46C G58C G83C C125A | -4.17
41 | G46A C87U A89C G94A A113C | ≤ -4.2
42 | G46A C76A C96U G141C | ≤ -4.2
43 | A47U G124A | 0.304
44 | A47C U56A A60G C85U C96U A150U | -0.791
45 | G46C U55G G58U | -0.983
46 | A47C G74U A107G A122U | ≤ -4.2
47 | A47C C95U C116A | -0.555
48 | G46C C87U A98G G117U A142U | ≤ -4.2

Row | Variant | polymerase ribozyme fitness (log ratio)
49 | U45G U61G C87G G88C C118G C129G G141A | ≤ -4.2
50 | G46A G50C U56A G83U A147C | ≤ -4.2
51 | A47C U82A | -0.366
52 | G48A C51U C54A U82G A120U | -3.66
53 | G46C U61G U78A C93A | ≤ -4.2
54 | A47C C57A G84U A89C | -1.5
55 | A47C G83C G112C | ≤ -4.2
56 | G46U C51G C54U | ≤ -4.2
57 | G46C U109G | -1.81
58 | G48A A106G | -1.77
59 | G48A A107G | -4.08
60 | A47G G74A U101G A121C U145C | ≤ -4.2
61 | A47U C96A A97G A122C | -1.28
62 | G46C G59C G88A | ≤ -4.2
63 | G48A A52U C75U A91G | ≤ -4.2
64 | A47U G84C C93U | ≤ -4.2
65 | G46C C85U A110U | -4.17
66 | A47C G81C C99A U134G | -4.06
67 | A47G C114U | -2.4
68 | U45G G88A | -4.02
69 | A47U U56A C95U A119U U135A | -2.15
70 | G48A C57A G92A | -3.32
71 | A47C C51U G58C G70A C96U A106U U151C | ≤ -4.2
72 | G46C C105G | 1.29

Row | Variant | polymerase ribozyme fitness (log ratio)
73 | U45G U56A C69A C96A C131U G136U | -3.1
74 | G46A C96U U101A | -2.59
75 | A47G C51U C87U | -0.414
76 | A47U U55A A89G A120U U144G | -0.697
77 | A47G G84A G128C | -3.37
78 | A47G G58C G65A G141U | -1.24
79 | A47G C93G U144A | -2.58
80 | A47G U55G | 0.325
81 | G46A G59C C76U C96U C116U | ≤ -4.2
82 | A47G G84C | -2.56
83 | A47G G84U | -1.59
84 | A47C U77G U130G | ≤ -4.2
85 | A47C C93A A106U U109G | ≤ -4.2
86 | A47C G83A C99U A120U | -3.03
87 | A47C G59A G84U G94U G124A | -3.56
88 | A47C U127C | -1.6
89 | A47C C129G | -4.19
90 | U45G U53A U56C G84A C125U A137G G140U C149A | ≤ -4.2
91 | A47C A91C G112C G133C C149U | ≤ -4.2
92 | A47U G50C A121U | -3.92
93 | A47G A52C A97U | -1.2
94 | G46U C72A U90G A97G G100A U104A A107G G124C | ≤ -4.2
95 | G46U G84C C87G A150G | ≤ -4.2
96 | A47C U55G | 0.183

Row | Variant | polymerase ribozyme fitness (log ratio)
97 | A47U U55A G141U | -1.14
98 | A47U G50A G84U A98U | -3.28
99 | A47C G50C U53A A89G A106U A120C G136A | ≤ -4.2
100 | A47C A52G U77G G94U C99U | ≤ -4.2
101 | G46U C87A G88A G143U U148A | ≤ -4.2
102 | A47C C85U | -1.58
103 | A47G G81C G92C C95A A142G | -2.95
104 | A47C A73U C118A | -3.14
105 | A47G G83C U134A G140U | -4.17
106 | A47C C95U C96U C118U C131U | -1.83
107 | G48A A60G G84U | -1.73
108 | G46U C69G | -0.758
109 | A47C G50U G58U A91G A97U U102A | ≤ -4.2
110 | A47C G83U | -1.01
111 | A47G A49U G50C C57U A107C A150C | ≤ -4.2
112 | A47C U102G A115U A142G U148A | ≤ -4.2
113 | A47U G80A A91C | ≤ -4.2
114 | U45G G59C C99A U151G | ≤ -4.2
115 | G46C C75U G88A A106U C116G | ≤ -4.2
116 | G46A G84U C99A A110C C114U U146C | ≤ -4.2
117 | U45G G70A C87U U144G | ≤ -4.2
118 | G46C A47G G71A C85U G88C | ≤ -4.2
119 | A47C G48A G124U | -3.59
120 | A47G G140A | -3.51

Row | Variant | polymerase ribozyme fitness (log ratio)
121 | G46A G68C G83C A147U | ≤ -4.2
122 | A47U C57A | 0.807
123 | A47C A122U | -1.45
124 | A47C A119G | 0.0948
125 | G46A C54G G86U G117A A119G A137G G141C G143U | ≤ -4.2
126 | G46U C103G G124A U151G | ≤ -4.2
127 | G48A A49U G70U C75A G88A | ≤ -4.2
128 | A47U G62C G84U | -3.86
129 | G46C U56A G84A G133C | -2.71
130 | G46C C54U C95U C116U C118G | -2.25
131 | G48A A52U G86U | ≤ -4.2
132 | G46U U56A | -0.107
133 | G46A G81A G136A U146A | 0.373
134 | G46A C99U G141A | ≤ -4.2
135 | A47U C51U A52C U53G U61A A64U C76U G83U U146C | ≤ -4.2
136 | G46C G50U G68A C76A C85U U130G | ≤ -4.2
137 | A47G G50U G94U G141C | -2.22
138 | A47G C123G U151C | -4.15
139 | A47G A52C A73G C76G C87G A98G | ≤ -4.2
140 | G48A C57A U127A A142G G143A | ≤ -4.2
141 | U45G G68U | ≤ -4.2
142 | A47U U56A C87G A115C G141A | -3.84
143 | A47U C85U | -0.698
144 | A47G G84U U135A | -2.45

Row | Variant | polymerase ribozyme fitness (log ratio)
145 | G46C G50U A52C A60U G80C C95U A150G | ≤ -4.2
146 | G46A A52G C85A | -2.54
147 | A47G G59C G92U C99A C118G | -3.37
148 | A47U C75U | -1.41
149 | A47C U78A C131U U145A | ≤ -4.2
150 | G46A U55A | -0.993
151 | A47U G92U | -0.338
152 | G46U A120U | -0.29
153 | G46U C93U | -0.878
154 | G46A U53A G59A A66C U90C A91U C108G G133C | ≤ -4.2
155 | G46U U82C C95U | -0.628
156 | G46A U53A G83A U90A G92A U134A | ≤ -4.2
157 | G46C A52G C63A G71A A110G A113U | ≤ -4.2
158 | G46C U102C G136U | ≤ -4.2
159 | A47C C85A C96U A97U | ≤ -4.2
160 | G46A A97C C103G C123A G141C A147C C149A | ≤ -4.2
161 | A47G C99U | 0.0144
162 | A47G C75G A107U U135A U148C | ≤ -4.2
163 | A47C U53C C57A C72G A73C U78C C79U C96G C129A A150G | ≤ -4.2
164 | G46U C57G G70C U78G C87U G88U G143A U144A | ≤ -4.2
165 | G46C G50C A89G A107C G152C | ≤ -4.2
166 | A47C A49C U144G | -4
167 | G46C C96U A98U A106G | -0.573
